Experimental findings from patent US20250157661 are described below.

The subject of this series is Indicator molecule containing the cleavable sequence GPQGIFGQ with a terminal biotin group connected via a polyethylene glycol spacer/linker (intact, Examples 1-6).

Sequence of Active MMP-9 (Alere San Diego) (chain, as listed by the source): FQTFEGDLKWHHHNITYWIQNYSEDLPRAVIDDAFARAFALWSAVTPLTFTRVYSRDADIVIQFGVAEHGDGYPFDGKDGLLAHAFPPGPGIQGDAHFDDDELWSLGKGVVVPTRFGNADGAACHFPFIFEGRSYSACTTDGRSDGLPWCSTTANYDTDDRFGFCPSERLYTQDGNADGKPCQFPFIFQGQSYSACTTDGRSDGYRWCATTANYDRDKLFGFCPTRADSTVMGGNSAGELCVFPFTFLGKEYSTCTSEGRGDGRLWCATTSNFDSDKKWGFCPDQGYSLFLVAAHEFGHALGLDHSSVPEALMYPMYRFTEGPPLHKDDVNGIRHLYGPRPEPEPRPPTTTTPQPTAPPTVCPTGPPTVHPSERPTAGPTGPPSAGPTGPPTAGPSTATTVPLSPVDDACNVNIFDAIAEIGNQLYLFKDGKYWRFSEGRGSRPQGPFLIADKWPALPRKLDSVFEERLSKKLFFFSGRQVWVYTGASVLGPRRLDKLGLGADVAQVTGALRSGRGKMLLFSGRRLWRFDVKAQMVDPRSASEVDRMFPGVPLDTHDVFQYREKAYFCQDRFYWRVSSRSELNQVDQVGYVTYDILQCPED
Sequence of MMP9 (Enzo) (chain, as listed by the source): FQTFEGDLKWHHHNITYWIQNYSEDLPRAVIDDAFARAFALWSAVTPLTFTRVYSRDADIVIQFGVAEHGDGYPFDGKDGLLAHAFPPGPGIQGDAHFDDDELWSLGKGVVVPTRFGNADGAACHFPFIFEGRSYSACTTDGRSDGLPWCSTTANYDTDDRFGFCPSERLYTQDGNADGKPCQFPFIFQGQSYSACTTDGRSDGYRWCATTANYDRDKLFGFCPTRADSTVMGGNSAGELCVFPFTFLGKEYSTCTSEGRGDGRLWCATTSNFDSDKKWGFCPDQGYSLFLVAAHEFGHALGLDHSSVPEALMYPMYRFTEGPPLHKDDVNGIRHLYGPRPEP
Sequence of MMP2 (Enzo) (chain, as listed by the source): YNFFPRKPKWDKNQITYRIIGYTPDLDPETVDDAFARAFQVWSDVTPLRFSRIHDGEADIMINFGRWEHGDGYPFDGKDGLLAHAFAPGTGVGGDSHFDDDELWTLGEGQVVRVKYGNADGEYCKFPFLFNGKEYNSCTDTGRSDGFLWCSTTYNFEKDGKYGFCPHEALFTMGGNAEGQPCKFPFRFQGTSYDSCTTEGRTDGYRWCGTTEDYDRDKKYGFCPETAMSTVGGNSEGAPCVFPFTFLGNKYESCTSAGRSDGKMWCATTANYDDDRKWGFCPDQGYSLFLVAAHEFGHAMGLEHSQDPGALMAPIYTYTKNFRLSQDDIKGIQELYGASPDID
Sequence of MMP8 (Enzo) (chain, as listed by the source): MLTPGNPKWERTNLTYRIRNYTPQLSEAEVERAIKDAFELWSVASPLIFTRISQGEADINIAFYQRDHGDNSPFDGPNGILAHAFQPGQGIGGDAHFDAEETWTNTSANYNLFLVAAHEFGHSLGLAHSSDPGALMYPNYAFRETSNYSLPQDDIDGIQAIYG
Sequence of MMP3 (Enzo) (chain, as listed by the source): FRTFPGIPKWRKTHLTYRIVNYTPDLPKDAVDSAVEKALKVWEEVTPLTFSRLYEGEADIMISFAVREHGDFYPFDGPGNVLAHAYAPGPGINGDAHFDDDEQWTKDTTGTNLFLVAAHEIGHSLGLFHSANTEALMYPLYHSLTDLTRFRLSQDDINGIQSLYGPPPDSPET
Sequence of MMP10 (Enzo) (chain, as listed by the source): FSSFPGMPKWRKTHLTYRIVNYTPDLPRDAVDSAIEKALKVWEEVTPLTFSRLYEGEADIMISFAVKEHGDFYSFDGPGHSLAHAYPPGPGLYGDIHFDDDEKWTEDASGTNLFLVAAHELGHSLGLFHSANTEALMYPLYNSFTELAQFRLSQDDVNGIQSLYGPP

Substance Active MMP-9 (Alere San Diego) displayed an OD405 (ELISA, streptavidin plate, CF1522-AP) at 0.39 ng/ml MMP9 of 0.14 OD405; an OD405 (ELISA, streptavidin plate, CF1522-AP) at 0.78 ng/ml MMP9 of 0.14 OD405; an OD405 (ELISA, streptavidin plate, CF1522-AP) at 1.56 ng/ml MMP9 of 0.14 OD405; an OD405 (ELISA, streptavidin plate, CF1522-AP) at 3.13 ng/ml MMP9 of 0.13 OD405. This substance yielded an OD405 (ELISA, streptavidin plate, CF1522-AP) at 6.25 ng/ml MMP9 of 0.17 OD405; an OD405 (ELISA, streptavidin plate, CF1522-AP) at 12.50 ng/ml MMP9 of 0.18 OD405; an OD405 (ELISA, streptavidin plate, CF1522-AP) at 25.00 ng/ml MMP9 of 0.27 OD405; an OD405 (ELISA, streptavidin plate, CF1522-AP) at 50.00 ng/ml MMP9 of 0.5 OD405. Moreover, the reader value (lateral flow, CF1522-gold at the polystreptavidin test line) at 0.9765625 ng/ml MMP9 is 338 reader units; the reader value (lateral flow, CF1522-gold at the polystreptavidin test line) at 1.953125 ng/ml MMP9 stood at 343 reader units; the reader value (lateral flow, CF1522-gold at the polystreptavidin test line) at 3.90625 ng/ml MMP9 is 413 reader units; the reader value (lateral flow, CF1522-gold at the polystreptavidin test line) at 7.8125 ng/ml MMP9 came to 524 reader units. This substance also yielded a reader value (lateral flow, CF1522-gold at the polystreptavidin test line) at 15.625 ng/ml MMP9 of 882 reader units; a reader value (lateral flow, CF1522-gold at the polystreptavidin test line) at 31.25 ng/ml MMP9 of 2030 reader units; a reader value (lateral flow, CF1522-gold at the polystreptavidin test line) at 62.5 ng/ml MMP9 of 3830 reader units; a reader value (lateral flow, CF1522-gold at the polystreptavidin test line) at 125 ng/ml MMP9 of 5580 reader units. The substance further returned a reader value (lateral flow, CF1522-gold at the polystreptavidin test line) at 250 ng/ml MMP9 of 6220 reader units; a reader value (lateral flow, CF1522-gold at the polystreptavidin test line) at 500 ng/ml MMP9 of 6730 reader units; a reader value (lateral flow, CF1522-gold at the polystreptavidin test line) at 1000 ng/ml MMP9 of 6770 reader units.
MMP2 (Enzo) registered a Reader value (lateral flow, CF1522-gold) with MMP at 0.5 ug/ml of 1610 reader units.
In turn, MMP3 (Enzo) had a Reader value (lateral flow, CF1522-gold) with MMP at 0.5 ug/ml of 336 reader units.
Still for that read-out and setting: then MMP8 (Enzo), with 1140 reader units; and MMP9 (Enzo), with 3840 reader units.
The substance MMP10 (Enzo) gave a Reader value (lateral flow, CF1522-gold) with MMP at 0.5 ug/ml of 444 reader units.
